Test results taken from patent publication US20230021388A1 (VELOSBIO, published 2023).
Substitutions are numbered along the chain they refer to.

B1: Ab1 Fab variant H1 G27D (Fab, V domains shown)
VH: QVQLQESGPGLVKPSQTLSLTCTVSDYAFTAYNIHWVRQAPGQGLEWMGSFDPYDGGSSYNQKFKDRLTISKDTSKNQVVLTMTNMDPVDTATYYCARGWYYFDYWGHGTLVTVSS
VL: DIVMTQTPLSLPVTPGEPASISCRASKSISKYLAWYQQKPGQAPRLLIYSGSTLQSGIPPRFSGSGYGTDFTLTINNIESEDAAYYFCQQHDESPYTFGEGTKVEIK
notes: Fab
B2: Ab1 Fab variant H3 A107T (Fab, V domains shown)
VH: B1 VH with D26G, A97T
VL: B1 VL
notes: Fab
B3: Ab1 Fab variant H3 R108G (Fab, V domains shown)
VH: B1 VH with D26G, R98G
VL: B1 VL
notes: Fab
B4: Ab1 Fab variant H3 Y138Q (Fab, V domains shown)
VH: B1 VH with D26G, Y105Q
VL: B1 VL
notes: Fab
B5: Ab1 Fab variant H2 K75G (Fab, V domains shown)
VH: B1 VH with D26G, K65G
VL: B1 VL
notes: Fab
B6: Ab1 Fab variant H2 S68E (Fab, V domains shown)
VH: B1 VH with D26G, S58E
VL: B1 VL
notes: Fab
B7: Ab1 Fab variant H3 Y138V (Fab, V domains shown)
VH: B1 VH with D26G, Y105V
VL: B1 VL
notes: Fab
B8: Ab1 Fab variant H2 P60G (Fab, V domains shown)
VH: B1 VH with D26G, P53G
VL: B1 VL
notes: Fab
B9: Ab1 Fab variant H1 Y29S (Fab, V domains shown)
VH: B1 VH with D26G, Y27S
VL: B1 VL
notes: Fab
B10: Ab1 Fab variant H1 N40K (Fab, V domains shown)
VH: B1 VH with D26G, N33K
VL: B1 VL
notes: Fab
B11: Ab1 Fab variant H2 K75A (Fab, V domains shown)
VH: B1 VH with D26G, K65A
VL: B1 VL
notes: Fab
B12: Ab1 Fab variant H3 Y111A (Fab, V domains shown)
VH: B1 VH with D26G, Y101A
VL: B1 VL
notes: Fab
B13: Ab1 Fab variant H2 D65T (Fab, V domains shown)
VH: B1 VH with D26G, D55T
VL: B1 VL
notes: Fab
B14: Ab1 Fab variant H2 S68I (Fab, V domains shown)
VH: B1 VH with D26G, S58I
VL: B1 VL
notes: Fab
B15: Ab1 Fab variant H3 Y111L (Fab, V domains shown)
VH: B1 VH with D26G, Y101L
VL: B1 VL
notes: Fab
B16: Ab1 Fab variant H1 G27R (Fab, V domains shown)
VH: B1 VH with D26R
VL: B1 VL
notes: Fab
B17: Ab1 Fab variant H2 D59S (Fab, V domains shown)
VH: B1 VH with D26G, D52S
VL: B1 VL
notes: Fab
B18: Ab1 Fab variant H3 Y138T (Fab, V domains shown)
VH: B1 VH with D26G, Y105T
VL: B1 VL
notes: Fab
B19: Ab1 Fab variant H2 K73S (Fab, V domains shown)
VH: B1 VH with D26G, K63S
VL: B1 VL
notes: Fab
B20: Ab1 Fab variant H2 G67H (Fab, V domains shown)
VH: B1 VH with D26G, G57H
VL: B1 VL
notes: Fab
B21: Ab1 Fab variant L3 D110H (Fab, V domains shown)
VH: B1 VH with D26G
VL: B1 VL with D92H
notes: Fab
B22: Ab1 Fab variant H2 S68Q (Fab, V domains shown)
VH: B1 VH with D26G, S58Q
VL: B1 VL
notes: Fab
B23: Ab1 Fab variant H3 A107V (Fab, V domains shown)
VH: B1 VH with D26G, A97V
VL: B1 VL
notes: Fab
B24: Ab1 Fab variant H3 F136L (Fab, V domains shown)
VH: B1 VH with D26G, F103L
VL: B1 VL
notes: Fab
B25: Ab1 Fab variant H2 G67M (Fab, V domains shown)
VH: B1 VH with D26G, G57M
VL: B1 VL
notes: Fab
B26: Ab1 Fab variant H1 Y29K (Fab, V domains shown)
VH: B1 VH with D26G, Y27K
VL: B1 VL
notes: Fab
B27: Ab1 Fab variant H2 K73C (Fab, V domains shown)
VH: B1 VH with D26G, K63C
VL: B1 VL
notes: Fab
B28: Ab1 Fab variant H2 F58P (Fab, V domains shown)
VH: B1 VH with D26G, F51P
VL: B1 VL
notes: Fab
B29: Ab1 Fab variant H2 D65N (Fab, V domains shown)
VH: B1 VH with D26G, D55N
VL: B1 VL
notes: Fab
B30: Ab1 Fab variant H1 T32D (Fab, V domains shown)
VH: B1 VH with D26G, T30D
VL: B1 VL
notes: Fab
B31: Ab1 Fab variant H1 G27T (Fab, V domains shown)
VH: B1 VH with D26T
VL: B1 VL
notes: Fab
B32: Ab1 Fab variant H2 G67S (Fab, V domains shown)
VH: B1 VH with D26G, G57S
VL: B1 VL
notes: Fab
B33: Ab1 Fab variant H2 P60T (Fab, V domains shown)
VH: B1 VH with D26G, P53T
VL: B1 VL
notes: Fab

Biological target: T1, recombinant human ROR1 extracellular domain (human, UniProt Q01973 30-406)
T1 construct: biotinylated for the filter lifts; also called huROR1-ECD; human ROR1-ECD
T1 sequence (Q01973 30-406 limits assumed): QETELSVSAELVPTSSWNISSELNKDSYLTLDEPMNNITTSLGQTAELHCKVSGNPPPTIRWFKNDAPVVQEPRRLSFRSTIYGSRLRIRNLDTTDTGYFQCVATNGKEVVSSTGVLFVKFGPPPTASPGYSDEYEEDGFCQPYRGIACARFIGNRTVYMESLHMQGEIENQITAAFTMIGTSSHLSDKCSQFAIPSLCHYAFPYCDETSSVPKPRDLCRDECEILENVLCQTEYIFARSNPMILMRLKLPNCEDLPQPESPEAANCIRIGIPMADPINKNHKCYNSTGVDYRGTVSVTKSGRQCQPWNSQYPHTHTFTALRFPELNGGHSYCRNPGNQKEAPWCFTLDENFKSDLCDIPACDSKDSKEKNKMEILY
Experiment: capture filter lift
Method: Subsequently, the filter was applied to the agar plates as described above. For detection of antigen binding, the filter was rinsed briefly in PBS, and transferred to biotinylated huROR1-ECD (ACROBiosystems, cat. #RO1-H522y) in 5% M-P.
Filters were incubated with 2.3 nM biotinylated ROR1 diluted in 5% M-P for 2 h at 25° C. with constant agitation, and washed 5 times, 2 minutes each wash, with constant agitation in PBS-T. Alternatively, filters were washed more rapidly using a squirt bottle and sintered glass funnel for vacuum filtration. The filters were transferred to 10 mL of High Sensitivity Neutravidin, HRP conjugate (Thermo Scientific, cat. #31030) diluted 5000-fold in 1% BSA in PBS and incubated for 1 h at 25° C. The filters were then washed 5 times in PBS-T and were developed with 1-Step Ultra TMB-Blotting.
All libraries were initially screened by capture lift to identify variants with improved binding. The capture lift assay, described in Example 1, enables the filter lift assay to discern variants that bind antigen more strongly based on the staining intensity. In order to determine the optimal concentration of antigen to use for screening, biotinylated huROR1-ECD was titrated on a capture lift of Ab1 Fab. Binding to Ab1 was clearly visible at antigen concentrations ≥23 nM and the signal was diminished at lower huROR1 concentrations. […] In addition, for more stringent screening, filters were probed with lower concentrations of antigen and/or development of the filter was terminated earlier, before the Ab1 staining was visible. […] In this example, approximately 250 library variants were plated. Twelve variants clearly bound huROR1 (FIG. 4, numbered).

| binding result | Binder |
| --- | --- |
| binds | B1 |
| binds | B2 |
| binds | B3 |
| binds | B4 |
| binds | B5 |
| binds | B6 |
| binds | B7 |
| binds | B8 |
| binds | B9 |
| binds | B10 |
| binds | B11 |
| binds | B12 |
| binds | B13 |
| binds | B14 |
| binds | B15 |
| binds | B16 |
| binds | B17 |

| binding result | Binder |
| --- | --- |
| binds | B18 |
| binds | B19 |
| binds | B20 |
| binds | B21 |
| binds | B22 |
| binds | B23 |
| binds | B24 |
| binds | B25 |
| binds | B26 |
| binds | B27 |
| binds | B28 |
| binds | B29 |
| binds | B30 |
| binds | B31 |
| binds | B32 |
| binds | B33 |
